In publication PMC3839082:

Target: hCINAP-H79G mutant (human) (UniProt Q9Y3D8)
Assay: SEC

In the case of “hCINAP-H79G mutant (from UniProt Q9Y3D8 1-172) (enzyme)”, the stoichiometry N is reported as 2.
